Molecular target: T1, EsCas13d, nuclease-dead (Eubacterium siraeum, UniProt B0MS50, R295A;H300A;R849A;H854A)
T1 sequence: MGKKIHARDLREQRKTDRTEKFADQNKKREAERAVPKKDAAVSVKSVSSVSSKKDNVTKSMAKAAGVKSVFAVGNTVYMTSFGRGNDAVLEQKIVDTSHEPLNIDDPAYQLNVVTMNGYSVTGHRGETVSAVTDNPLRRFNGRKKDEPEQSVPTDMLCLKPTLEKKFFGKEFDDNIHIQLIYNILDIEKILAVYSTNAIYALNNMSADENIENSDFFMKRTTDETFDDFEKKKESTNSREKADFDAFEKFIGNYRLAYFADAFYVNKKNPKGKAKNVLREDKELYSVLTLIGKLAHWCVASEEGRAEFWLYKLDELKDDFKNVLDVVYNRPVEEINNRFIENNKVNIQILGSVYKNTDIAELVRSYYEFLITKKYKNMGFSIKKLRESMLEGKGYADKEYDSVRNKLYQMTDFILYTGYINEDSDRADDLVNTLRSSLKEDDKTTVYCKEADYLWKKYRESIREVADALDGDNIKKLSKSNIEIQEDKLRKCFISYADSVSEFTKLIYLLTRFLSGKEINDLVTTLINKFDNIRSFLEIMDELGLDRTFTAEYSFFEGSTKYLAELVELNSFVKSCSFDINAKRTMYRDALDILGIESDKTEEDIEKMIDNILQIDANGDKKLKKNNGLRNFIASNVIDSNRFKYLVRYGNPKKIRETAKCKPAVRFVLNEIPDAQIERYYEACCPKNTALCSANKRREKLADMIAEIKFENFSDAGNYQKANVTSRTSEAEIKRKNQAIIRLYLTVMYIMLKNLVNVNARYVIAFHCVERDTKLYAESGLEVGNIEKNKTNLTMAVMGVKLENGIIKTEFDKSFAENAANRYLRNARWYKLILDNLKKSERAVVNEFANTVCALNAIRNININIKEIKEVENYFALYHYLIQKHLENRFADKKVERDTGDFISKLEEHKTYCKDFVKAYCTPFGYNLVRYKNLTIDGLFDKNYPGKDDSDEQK
Assay: crRNA (strand 1, pre-loaded); Mg2+; 40 mM Tris-HCl pH 7.5, 150 mM NaCl, 6 mM MgCl2, 1 mM DTT, 0.1% Tween-20, 0.2 mg/ml BSA; 25 C; 10 min per concentration, then washed
Conditions: tags: His6-TwinStrep-SUMO cleaved; N-terminal SNAP kept (SNAP-Surface 488); label: 3' end held by stalled T7 RNA polymerase

B1: target 1 insC 3' of 15,insU 3' of 5 (mixed)
RNA 1: CACCCGUGCAAAAAUGCAGGGGUCUAAAACUGAGCGGAUAACCUCUCUAUGG
RNA 2: GGGAAUGGAUCCACAUCUACGAAUUCGUACCAUAGAGCAGGUUAUCCGUCUCACCGAGAUCGGAAGAGCACACGU
  Kd: 16.6 ± 1.8 nM

B2: target 1 A16G,G17C (mixed)
RNA 1: CACCCGUGCAAAAAUGCAGGGGUCUAAAACUGAGCGGAUAACCUCUCUAUGG
RNA 2: GGGAAUGGAUCCACAUCUACGAAUUCGUACCAUACGGAGGUUAUCCGCUCACCGAGAUCGGAAGAGCACACGU
  Kd: 76 ± 10 nM

B3: target 1 C7G,U11C (mixed)
RNA 1: CACCCGUGCAAAAAUGCAGGGGUCUAAAACUGAGCGGAUAACCUCUCUAUGG
RNA 2: GGGAAUGGAUCCACAUCUACGAAUUCGUACCAUAGAGAGGCUAUGCGCUCACCGAGAUCGGAAGAGCACACGU
  Kd: 14.6 ± 0.6 nM

B4: target 1 insU 3' of 13,insA 3' of 5 (mixed)
RNA 1: CACCCGUGCAAAAAUGCAGGGGUCUAAAACUGAGCGGAUAACCUCUCUAUGG
RNA 2: GGGAAUGGAUCCACAUCUACGAAUUCGUACCAUAGAGAGUGUUAUCCGACUCACCGAGAUCGGAAGAGCACACGU
  Kd: 15.7 ± 2.7 nM

B5: target 1 C4U,C6A (mixed)
RNA 1: CACCCGUGCAAAAAUGCAGGGGUCUAAAACUGAGCGGAUAACCUCUCUAUGG
RNA 2: GGGAAUGGAUCCACAUCUACGAAUUCGUACCAUAGAGAGGUUAUCAGUUCACCGAGAUCGGAAGAGCACACGU
  Kd: 7.52 ± 0.33 nM

B6: target 1 U3A,A9U (mixed)
RNA 1: CACCCGUGCAAAAAUGCAGGGGUCUAAAACUGAGCGGAUAACCUCUCUAUGG
RNA 2: GGGAAUGGAUCCACAUCUACGAAUUCGUACCAUAGAGAGGUUUUCCGCACACCGAGAUCGGAAGAGCACACGU
  Kd: 10.8 ± 0.9 nM

B7: target 1 insC 3' of 19,insA 3' of 10 (mixed)
RNA 1: CACCCGUGCAAAAAUGCAGGGGUCUAAAACUGAGCGGAUAACCUCUCUAUGG
RNA 2: GGGAAUGGAUCCACAUCUACGAAUUCGUACCAUCAGAGAGGUUAAUCCGCUCACCGAGAUCGGAAGAGCACACGU
  Kd: 57 ± 5 nM

B8: target 1 U19A,C22A (mixed)
RNA 1: CACCCGUGCAAAAAUGCAGGGGUCUAAAACUGAGCGGAUAACCUCUCUAUGG
RNA 2: GGGAAUGGAUCCACAUCUACGAAUUCGUAACAAAGAGAGGUUAUCCGCUCACCGAGAUCGGAAGAGCACACGU
  Kd: 56 ± 7 nM

B9: target 1 insC 3' of 10,insG 3' of 3 (mixed)
RNA 1: CACCCGUGCAAAAAUGCAGGGGUCUAAAACUGAGCGGAUAACCUCUCUAUGG
RNA 2: GGGAAUGGAUCCACAUCUACGAAUUCGUACCAUAGAGAGGUUCAUCCGCUGCACCGAGAUCGGAAGAGCACACGU
  Kd: 9.5 ± 0.5 nM

B10: target 1 U8G (mixed)
RNA 1: CACCCGUGCAAAAAUGCAGGGGUCUAAAACUGAGCGGAUAACCUCUCUAUGG
RNA 2: GGGAAUGGAUCCACAUCUACGAAUUCGUACCAUAGAGAGGUUAGCCGCUCACCGAGAUCGGAAGAGCACACGU
  Kd: 19.2 ± 0.9 nM

B11: target 1 C4G,U10G (mixed)
RNA 1: CACCCGUGCAAAAAUGCAGGGGUCUAAAACUGAGCGGAUAACCUCUCUAUGG
RNA 2: GGGAAUGGAUCCACAUCUACGAAUUCGUACCAUAGAGAGGUGAUCCGGUCACCGAGAUCGGAAGAGCACACGU
  Kd: 13.6 ± 0.5 nM

B12: target 1 insU 3' of 7,insU 3' of 1 (mixed)
RNA 1: CACCCGUGCAAAAAUGCAGGGGUCUAAAACUGAGCGGAUAACCUCUCUAUGG
RNA 2: GGGAAUGGAUCCACAUCUACGAAUUCGUACCAUAGAGAGGUUAUCUCGCUCAUCCGAGAUCGGAAGAGCACACGU
  Kd: 18.4 ± 0.9 nM

B13: target 1 insG 3' of 8,insC 3' of 5 (mixed)
RNA 1: CACCCGUGCAAAAAUGCAGGGGUCUAAAACUGAGCGGAUAACCUCUCUAUGG
RNA 2: GGGAAUGGAUCCACAUCUACGAAUUCGUACCAUAGAGAGGUUAUGCCGCCUCACCGAGAUCGGAAGAGCACACGU
  Kd: 10.2 ± 0.4 nM

B14: target 1 insA 3' of 13,insA 3' of 2 (mixed)
RNA 1: CACCCGUGCAAAAAUGCAGGGGUCUAAAACUGAGCGGAUAACCUCUCUAUGG
RNA 2: GGGAAUGGAUCCACAUCUACGAAUUCGUACCAUAGAGAGAGUUAUCCGCUCAACCGAGAUCGGAAGAGCACACGU
  Kd: 3.1 ± 0.28 nM

B15: target 1 U3A,A14G (mixed)
RNA 1: CACCCGUGCAAAAAUGCAGGGGUCUAAAACUGAGCGGAUAACCUCUCUAUGG
RNA 2: GGGAAUGGAUCCACAUCUACGAAUUCGUACCAUAGAGGGGUUAUCCGCACACCGAGAUCGGAAGAGCACACGU
  Kd: 14.3 ± 1.2 nM

B16: target 1 C2U,G5C (mixed)
RNA 1: CACCCGUGCAAAAAUGCAGGGGUCUAAAACUGAGCGGAUAACCUCUCUAUGG
RNA 2: GGGAAUGGAUCCACAUCUACGAAUUCGUACCAUAGAGAGGUUAUCCCCUUACCGAGAUCGGAAGAGCACACGU
  Kd: 12.4 ± 0.8 nM

B17: target 1 A1U,U8G (mixed)
RNA 1: CACCCGUGCAAAAAUGCAGGGGUCUAAAACUGAGCGGAUAACCUCUCUAUGG
RNA 2: GGGAAUGGAUCCACAUCUACGAAUUCGUACCAUAGAGAGGUUAGCCGCUCUCCGAGAUCGGAAGAGCACACGU
  Kd: 24.6 ± 1 nM

B18: target 1 G15A,A16U (mixed)
RNA 1: CACCCGUGCAAAAAUGCAGGGGUCUAAAACUGAGCGGAUAACCUCUCUAUGG
RNA 2: GGGAAUGGAUCCACAUCUACGAAUUCGUACCAUAGUAAGGUUAUCCGCUCACCGAGAUCGGAAGAGCACACGU
  Kd: 24.3 ± 2.3 nM

B19: target 1 del14,del20 (mixed)
RNA 1: CACCCGUGCAAAAAUGCAGGGGUCUAAAACUGAGCGGAUAACCUCUCUAUGG
RNA 2: GGGAAUGGAUCCACAUCUACGAAUUCGUACCUAGAGGGUUAUCCGCUCACCGAGAUCGGAAGAGCACACGU
  Kd: 72 ± 25 nM

B20: target 1 insG 3' of 22,insC 3' of 20 (mixed)
RNA 1: CACCCGUGCAAAAAUGCAGGGGUCUAAAACUGAGCGGAUAACCUCUCUAUGG
RNA 2: GGGAAUGGAUCCACAUCUACGAAUUCGUACGCACUAGAGAGGUUAUCCGCUCACCGAGAUCGGAAGAGCACACGU
  Kd: 8.4 ± 0.7 nM

B21: target 1 U10C,G13A (mixed)
RNA 1: CACCCGUGCAAAAAUGCAGGGGUCUAAAACUGAGCGGAUAACCUCUCUAUGG
RNA 2: GGGAAUGGAUCCACAUCUACGAAUUCGUACCAUAGAGAAGUCAUCCGCUCACCGAGAUCGGAAGAGCACACGU
  Kd: 13.6 ± 1 nM

B22: target 1 C7G,G12U (mixed)
RNA 1: CACCCGUGCAAAAAUGCAGGGGUCUAAAACUGAGCGGAUAACCUCUCUAUGG
RNA 2: GGGAAUGGAUCCACAUCUACGAAUUCGUACCAUAGAGAGUUUAUGCGCUCACCGAGAUCGGAAGAGCACACGU
  Kd: 14.3 ± 1.1 nM

B23: target 1 insG 3' of 10,insG 3' of 7 (mixed)
RNA 1: CACCCGUGCAAAAAUGCAGGGGUCUAAAACUGAGCGGAUAACCUCUCUAUGG
RNA 2: GGGAAUGGAUCCACAUCUACGAAUUCGUACCAUAGAGAGGUUGAUCGCGCUCACCGAGAUCGGAAGAGCACACGU
  Kd: 12.5 ± 0.6 nM

B24: target 1 U3C,A9G (mixed)
RNA 1: CACCCGUGCAAAAAUGCAGGGGUCUAAAACUGAGCGGAUAACCUCUCUAUGG
RNA 2: GGGAAUGGAUCCACAUCUACGAAUUCGUACCAUAGAGAGGUUGUCCGCCCACCGAGAUCGGAAGAGCACACGU
  Kd: 30.5 ± 3.2 nM

B25: target 1 insU 3' of 13,insA 3' of 12 (mixed)
RNA 1: CACCCGUGCAAAAAUGCAGGGGUCUAAAACUGAGCGGAUAACCUCUCUAUGG
RNA 2: GGGAAUGGAUCCACAUCUACGAAUUCGUACCAUAGAGAGUGAUUAUCCGCUCACCGAGAUCGGAAGAGCACACGU
  Kd: 10.1 ± 0.7 nM

B26: target 1 G12U,G17A (mixed)
RNA 1: CACCCGUGCAAAAAUGCAGGGGUCUAAAACUGAGCGGAUAACCUCUCUAUGG
RNA 2: GGGAAUGGAUCCACAUCUACGAAUUCGUACCAUAAAGAGUUUAUCCGCUCACCGAGAUCGGAAGAGCACACGU
  Kd: 59 ± 8 nM

B27: target 1 G17U,C22U (mixed)
RNA 1: CACCCGUGCAAAAAUGCAGGGGUCUAAAACUGAGCGGAUAACCUCUCUAUGG
RNA 2: GGGAAUGGAUCCACAUCUACGAAUUCGUAUCAUAUAGAGGUUAUCCGCUCACCGAGAUCGGAAGAGCACACGU
  Kd: 32.4 ± 2.8 nM

B28: target 1 insG 3' of 22,insU 3' of 18 (mixed)
RNA 1: CACCCGUGCAAAAAUGCAGGGGUCUAAAACUGAGCGGAUAACCUCUCUAUGG
RNA 2: GGGAAUGGAUCCACAUCUACGAAUUCGUACGCAUAUGAGAGGUUAUCCGCUCACCGAGAUCGGAAGAGCACACGU
  Kd: 74 ± 18 nM
